Measured values from PMC4216633 (Journal of nuclear medicine : official publication, Society …, 2014).

Legend:
[1] = system: thrombus; test: Ex vivo biodistribution in rat model of arterial thrombosis; conditions: rat carotid crush thrombosis
[2] = rat, in vivo, iv
[3] = rat, in vivo

Row | Substance | uptake at the target site (thrombus), persisted over 5h [1] | elimination half-life of the intact probe in blood [2] [min] | intact probe in blood at 4h post-injection [3] [%]
1 | FHCHypY(3-Cl)DLCHIL-PXD (disulfide) [FBP8] | 0.5–0.8 % ID/g | 13.8 ± 3.8 | > 85
2 | FHCHypY(3-Cl)DLCHIL-PXD (disulfide) [FBP9] | 0.5–0.8 % ID/g | 17.9 ± 5.8 | > 85
